The source of these data is patent US20100047253A1.

The target in assay [1] is human IL-13 (source not stated for the assay) (human) (UniProt P35225). Briefly: cell-based or functional assay.
Assay [2] concerns the target IL-13 variant IL-13Q110R (human) (UniProt P35225). Briefly: cell-based or functional assay.
For assay [3] the target is unchanged. Nature of the assay: SPR (Biacore 2000), mAb captured on goat anti-human surface, IL-13 variant (Peprotech) 23.6-0.185 nM, 1:1 model. Background: Surface plasmon resonance follows binding to a sensor surface in real time, without labels.

IL-13 variant IL-13Q110R (human), sequence (P35225 33-146, stated change not applied): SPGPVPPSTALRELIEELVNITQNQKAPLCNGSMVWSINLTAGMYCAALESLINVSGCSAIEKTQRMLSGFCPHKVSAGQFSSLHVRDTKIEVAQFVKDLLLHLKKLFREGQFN
human IL-13 (source not stated for the assay) (human), sequence (P35225 35-146 limits assumed): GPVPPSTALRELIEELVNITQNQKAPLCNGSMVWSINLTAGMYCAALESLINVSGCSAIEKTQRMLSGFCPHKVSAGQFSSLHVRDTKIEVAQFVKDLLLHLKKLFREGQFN

B1: murine IL-13 receptor α2/FC (Fc fusion, mouse, UniProt O88786 22-334, looked up, not shown: a dimerising Fc or GST)
chain: LEIKVNPPQDFEILDPGLLGYLYLQWKPPVVIEKFKGCTLEYELKYRNVDSDSWKTIITRNLIYKDGFDLNKGIEGKIRTHLSEHCTNGSEVQSPWIEASYGISDEGSLETKIQDMKCIYYNWQYLVCSWKPGKTVYSDTNYTMFFWYEGLDHALQCADYLQHDEKNVGCKLSNLDSSDYKDFFICVNGSSKLEPIRSSYTVFQLQNIVKPLPPEFLHISVENSIDIRMKWSTPGGPIPPRCYTYEIVIREDDISWESATDKNDMKLKRRANESEDLCFFVRCKVNIYCADDGIWSEWSEEECWEGYTGPDSK
In assay [1], B1 registered an IC50, IL-13 induced eotaxin release, Average of 0.032 nM; an IC50, IL-13 induced eotaxin release, n = 1 of 0.029 nM; an IC50, IL-13 induced eotaxin release, n = 2 of 0.039 nM; an IC50, IL-13 induced eotaxin release, n = 3 of 0.029 nM.

B2: human IL-13 receptor α2/Fc (Fc fusion, UniProt Q14627 27-343, looked up, not shown: a dimerising Fc or GST)
chain: DTEIKVNPPQDFEIVDPGYLGYLYLQWQPPLSLDHFKECTVEYELKYRNIGSETWKTIITKNLHYKDGFDLNKGIEAKIHTLLPWQCTNGSEVQSSWAETTYWISPQGIPETKVQDMDCVYYNWQYLLCSWKPGIGVLLDTNYNLFYWYEGLDHALQCVDYIKADGQNIGCRFPYLEASDYKDFYICVNGSSENKPIRSSYFTFQLQNIVKPLPPVYLTFTRESSCEIKLKWSIPLGPIPARCFDYEIEIREDDTTLVTATVENETYTLKTTNETRQLCFVVRSKVNIYCSDDGIWSEWSDKQCWEGEDLSKKTLLR
For B2, in assay [1], the EC50, HDLM-2 proliferation assay (3H-thymidine) turned out to be 0.6 nM; the EC50, L-1236 proliferation assay (3H-thymidine) was 0.059 nM; the IC50, IL-13-induced CD23 expression on whole blood B cells (FACS) was 4 nM; the IC50, IL-13 induced eotaxin release, Average stood at 0.131 nM. In assay [1], this molecule gave an IC50, IL-13 induced eotaxin release, n = 1 of 0.128 nM; an IC50, IL-13 induced eotaxin release, n = 2 of 0.147 nM; an IC50, IL-13 induced eotaxin release, n = 3 of 0.119 nM.

B3: mAb 731 (antibody, V domains shown)
VH: EVQLLESGGGLVQPGGSLRLSCAASGFTFSSYAMSWVRQAPGKGLEWVSAFSGSGGSTYYADSVKGRFTISRDNSKNTLYLQMNSLRAEDTAVYYCVQDGLGPYFYNYGMDVWGQGTTVTVSS
VL: SYELTQPPSVSVSPGQTASITCSGDKLGDKYACWFQQKPGQSPVLVIYHDSKRPSGIPERFSGSNSGDTATLTISGTQAMDEADYYCQAWDSSTYVFGTGTKVTVLG
As for B3, in assay [2], the IC50, eotaxin production by HDFa cells, 300 pM IL-13Q110R was found to be 54 pM and the IC50, eotaxin production by HDFa cells, 600 pM IL-13Q130R came to 140 pM. For the same molecule, in assay [3], the Kd (as a rule, the free concentration of one partner at which half of the binding sites on the other are occupied at equilibrium, for simple one-to-one binding) was determined as 0.0098 nM; the koff (as a rule, the first-order rate constant of dissociation) was determined as 5.02e-05 s⁻¹; the kon – broadly, the rate constant with which the complex forms – came to 5.11e+06 M⁻¹ s⁻¹.

B4: mAb 623 (antibody, V domains shown)
VH: EVQLVESGGGLVKPGGSLRLSCAASGFTFSNAWMSWVRQAPGKGLEWVGRIRSEIDGGTTNYAAPVKGRFTISRDDSKNTLYLQMNSLKTEDTAVYYCATDQVGAYYGDYYGMDVWGQGTTVTVSS
VL: SYELTQPPSVSVSPGQTARITCSGDALPEKYAYWYQQKSGQAPVLVIYEDSKRPSGIPERFSGSSSGTMATLTISGAQVEDEADYYCHSTDSSGNHGVFGGGTKLTVLG
Regarding B4, in assay [2], the IC50, eotaxin production by HDFa cells, 300 pM IL-13Q110R was determined as 106 pM and the IC50, eotaxin production by HDFa cells, 600 pM IL-13Q130R stood at 277 pM. In assay [3], this molecule returned a Kd of 0.0388 nM, a koff of 0.000218 s⁻¹ and a kon of 5.62e+06 M⁻¹ s⁻¹.
